Experimental data as given in patent publication US20090291088A1 (Biogen, published 2009).

Legend:
[1] = target: T1, human IGF-1R(1-902)-His10 (human, UniProt P08069 31-932); assay: SPR, Fab over captured IGF-1R-10His
T1 construct: Cy5-labelled in tr-FRET; also called hIGF-1R-His10; IGF-1R-His
Protocol: All surface plasmon resonance (SPR) experiments were performed on a Biacore 3000 set to 25° C. using HBS-EP (Biacore, Cat. No. BR-1001-88) as the running buffer. A biotin-labeled anti-HisTag antibody (biotin-PENTA-His, Qiagen Cat. No. 34440) was immobilized to saturation on a Biacore SA chip (Cat. No. BR-1000-32) surface by injection at 500 nM in HBS-EP buffer. […] Subsequent to IGF-1R injections, flow rates were increased to 20 μL/min. A second, 130 μL injection of anti-IGF-1R antibody or Fab was performed to investigate interactions with the receptor. Each antibody and Fab was serially diluted from 64 nM to 0.5 nM to obtain concentration dependent kinetic binding curves. Each injection series was regenerated using 3×10 μL injections of 10 mM Acetate, pH 4.0, at 20 μL/min. Each curve was double referenced using (1) data obtained from a streptavidin surface devoid of IGF-1R and (2) data from a primary injection of IGF-1R followed by a secondary injection of HBS-EP buffer. The concentration series for each antibody and Fab was fit to the 1:1 binding model provided within the BiaEvaluation software of the manufacturer.
To obtain discrete affinities, Fab fragments of each antibody were generated using papain digestion as described above.

[2] = target: T2, human IGF-1R expressed on cells (human, UniProt P08069 31-1367); assay: flow cytometry, MCF-7 cells
T2 construct: On MCF-7 tumor cells or on 3T3/CHO transfectants; precursor is processed into alpha and beta subunits; Signal peptide 1-30 left out as stated; also called wild type IGF-1R; IGF-1R 3T3

[3] = target: T3, hIGF-1R-Fc mutant SD202 (D250S) (human, UniProt P08069 31-933); assay: SPR, Fab over captured mutant
T3 construct: not shown: C-terminal human IgG1-Fc tag

[4] = target: T4, hIGF-1R-Fc mutant SD201 (D248A) (human, UniProt P08069 31-933); assay: SPR, Fab over captured mutant
T4 construct: not shown: C-terminal human IgG1-Fc tag

[5] = target: T5, hIGF-1R-Fc mutant SD008 (S257F) (human, UniProt P08069 31-933); assay: SPR, Fab over captured SD008
T5 construct: not shown: C-terminal human IgG1-Fc tag
Protocol: (§1) Surface plasmon resonance (SPR) experiments were performed on a Biacore 3000 instrument set to 25° C. […] The antibody sensorchip surfaces were prepared by injecting each antibody (diluted 100 μg/mL in 10 mM Acetate, pH 4.0) over EDC/NHS-activated sensorchip surfaces according to the standard protocol of the manufacturer. […] Both hIGF-1R-Fc and mIGF-1R-Fc proteins oligomerize due to the incorporation of two separate homodimeric regions (IGF-1R and IgG1-Fc). […] After, completion of the receptor-Fc loading step, flow rates were elevated to 5 μl/min. […] Dissociation was measured for 7 minutes after the antibody injections were complete. Finally, the flow rate was elevated to 30 μL/min and the chip surfaces were regenerated by 2×10 μL injections of 0.1 M glycine, pH 2.

[6] = target: T6, hIGF-1R-Fc mutant SD015 (H464E) (human, UniProt P08069 31-933); assay: SPR, Fab over captured SD015
T6 construct: not shown: C-terminal human IgG1-Fc tag

[7] = target: T7, hIGF-1R-Fc mutant SD012 (E303G) (human, UniProt P08069 31-933); assay: SPR, Fab over captured SD012
T7 construct: not shown: C-terminal human IgG1-Fc tag
Protocol: as §1

human IGF-1R(1-903)-Fc [8] = target: T8, human IGF-1R(1-903)-Fc (human, UniProt P08069 31-933); assay: ELISA on hIGF-1R-Fc, competitor biotinylated M14-G11
T8 construct: Made by Biogen Idec; Multimerises through IGF-1R and Fc; also called hIGF-1R-Fc; IGF-1R-Fc; not shown: C-terminal human IgG1-Fc tag

[9] = target: T9, hIGF-1R-Fc mutant SD203 (N254A) (human, UniProt P08069 31-933); assay: SPR, antibody over captured mutant
T9 construct: not shown: C-terminal human IgG1-Fc tag
Protocol: as §1

[10] = target: T10, hIGF-1R-Fc mutant SD207 (G265Y) (human, UniProt P08069 31-933); assay: SPR, antibody over captured mutant
T10 construct: not shown: C-terminal human IgG1-Fc tag
Protocol: as §1

human IGF-1R(1-903)-Fc [11] = target: T8, human IGF-1R(1-903)-Fc; assay: ELISA on hIGF-1R-Fc, competitor Zenon-labelled αIR3

B1: M14-G11 Fab (Fab, V domains shown)
VH: EVQLLESGGGLVQPGGSLRLSCAASGFTFSNYPMYWVRQAPGKGLEWVSRISSSGGRTVYADSVKGRFTISRDNSKNTLYLQMNSLRAEDTAVYYCARDRWSRSAAEYGLGGYWGQGTLVTVSS
VL: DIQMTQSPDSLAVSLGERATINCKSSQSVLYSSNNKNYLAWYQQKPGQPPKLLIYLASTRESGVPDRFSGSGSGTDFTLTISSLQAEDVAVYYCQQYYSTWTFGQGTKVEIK
notes: Human phage Fab, kappa
**Q.** Which results are given for B1?
**A.** Kd [1]: 4 nM; koff [1]: 0.0012 s⁻¹; kon [1]: 300000 M⁻¹ s⁻¹; EC50 [2]: 39.8 nM; binding result [3]: no binding (tested: 30 nM); binding result [4]: no binding (tested: 30 nM); fold loss in affinity against wild-type [5]: ~3 fold; Kd [6]: 4 to 6 nM; fold loss in affinity against wild-type [7]: ~3 fold

B2: P1E2 (chimeric antibody) (antibody, human IgG4, V domains shown)
VH: QVQLQQPGAELVKPGASVKLSCKASGYTFTSYWMHWVKQRPGQGLEWIGEINPTYGRSNYNEKFKSKATLTVDKSSSTAYMQLSSLTSEDSAVYYCARLVRLRYFDVWGAGTTVTVSS
VL: DIVMTQAAFSNPVTLGTSASISCRSSKSLLHSNGITYLYWYLQKPGQSPQLLIYQMSNLASGVPDRFSSSGSGTDFTLRISRVEAEDVGVYYCAQNLELPYTFGGGTKLEIK
notes: also called chimeric antibody P1E2
**Q.** What does the source list for B2?
**A.** percent competition (relative to self-competition) (human IGF-1R(1-903)-Fc [8]): 90 to 100%; binding result [9]: no binding (tested: 30 nM); binding result [10]: no binding (tested: 30 nM); percent competition (relative to self-competition) (human IGF-1R(1-903)-Fc [11]): 90 to 100%
